According to the DeepSol protein solubility set:

Experiment: soluble on expression in E. coli; label from the status in PepcDB or PDB records

Sequence | soluble on expression in E. coli
MGSDKIHHHHHHMIRETRQIHVGNVAIGGGAPCSVQSMCNTDTRDVAATLSQVLSLSSAGCEIVRCAVPDMAAAEALGEIKRQSPIPVIADIHFDYRLALRVLEGGIDGLRLNPGNIGERWKVEEVVKAARERLVPIRIGVNAGSLEKELLEKYGHPTAEAMVESALGHVRILEDIGYDQIKISLKASDVMKTVEAYRLLAQKVDYPLHIGITEAGTIFSGTIKSSVGLGILLADGIGDTMRVSLTGDPVDEVRVGFEILKALGLRQRGINFVSCPTCGRCQINLIGVAQEVENRLAAIDTPLTVAVMGCVVNGPGEAREADVGIAGGKGEGLLFRHGEIVRKVPEAEMADALIAEVEQMAKEKTHS | not soluble
MVDNIEQQVYELVRPYAGTYLFNIKQVELTPEIDLDTDLSIDELEAEDLMNKFFEELNVERGNFRIETYFPNHPFSWHPFKKTEPVPVPDFTISMLIESAKAGKWLYD | not soluble
LALVATGNDTTTKPDLYYLKNSEAINSLALLPPPPAVGSIAFLNDQAMYEQGRLLRNTERGKLAAEDANLSSGGVANAFSGAFGSPITEKDAPALHKLLTNMIEDAGDLATRSAKDHYMRIRPFAFYGVSTCNTTEQDKLSKNGSYPSGHTSIGWATALVLAEINPQRQNEILKRGYELGQSRVICGYHWQSDVDAARVVGSAVVATLHTNPAFQQQLQKAKAEFAQHQKK | soluble
MTTERVLQYPNLLKIVPYLSYSKRMELSKVSPEFRSIHSRLDYSLKTMSFSQDYGAISEEGPIEVGSGILKVESIEYIFEYDENMDQVKIKCLLAPELVRFSNDKSIIRRYFHYYLAASQRIVQHVKLRESDSPFRNLQSLKIPSISWTLNGAREYPQFINFQNHVFEKLELINYESIVLTETQVKSCKHLVLKKETIYQEYTVGNENSAIRNFYCILSNMKLELVLGLNYVESFILLCNRLLLDTLHIGSSVTAIFIKEPLLNVWRTLLERYEDSRGTFMGSGHRKCAILSTDNNIKVAVFENYFGKDSNGKESFTAIKMNNNVEFDA | not soluble
GPGSMERVRIRYVLTGACPPTYSGRVVHDFVALKQPNGCDTTIEMVKERFRSNWPADVKELAESISESGIRVLKAGRVLNDHDSLMRHLTASERKACLVSGDTKVGDTNDEMQKPSVLMHMVIQGNRAPLENSRKEKHKVSSTPEGGNSNEGHEMKKDSCCCVM | soluble
SRSFRPLYRLIGWIDRFRVNEPVQELVMAKTDVTEFRKLSEAMLRTAHHNVEVFEQQKEFISHASHELQTPLAISRNKLEMLLQDPSLNEQQLEQIYKAIQSINHIVQLNKTLLLYSKIENHQFPEEESIDVNELLHNLAEEYEAIFANRRIRIVWSRSEPMVLSMNPTLAKVLLSNLLKNAYLHNLERDGEIHIDLTSMHCSIANTGVKNALDETLIFERFYHDMKQAHSSGLGLPIARSICQLYGLRLTYRFENGKHTFSIGKEA | not soluble
MAHHHHHHMSEREHDETPVTAEGSAAAHEGSNMDLNGNESRASYIKTDLGELNMIESMCPKCQETGTTRLMITSIPHFKEIIVSSFECQHCGEVNNEVAFGGTFGPKRVRYELQVRSKQDLDRQVVKSEFATIAIPELELEIPPESQKGNLNTIEGVLEQTYSGLQLQQPLRKIQHPDVYEKIEAFCAKLASFRSGDVPFTLTLDDPAGNSYIEPIHDYYHPTLDPQLTKYEKERTEIDRQLLGIALDYNTERTQEEEKDVEEGQFSDVTQILCDCPACRRPGYIMMHECDIPYFKQTIIMAFKCEYCGYKSNEIKAGGEINAKGLRLVLHVTSEADLKRDVLKSDTATLIIPEVRLELAPGTLGGFFSTVEGTITQVRDQLMNLPQAAFAAGDSADDNSKTMLEFVKELDELLALREEFTFILDDPLGNVYIQNPCSHLPPPDDVDPKLEREEYTRTEEQDEELGILSMRHNEGQAGIEKSEDEADHEGEERNGAAAEEQETQQ | soluble
MSPIEKSSKLENVCYDIRGPVLKEAKRLEEEGNKVLKLNIGNPAPFGFDAPDEILVDVIRNLPTAQGYCDSKGLYSARKAIMQHYQARGMRDVTVEDIYIGNGVSELIVQAMQALLNSGDEMLVPAPDYPLWTAAVSLSSGKAVHYLCDESSDWFPDLDDIRAKITPRTRGIVIINPNNPTGAVYSKELLMEIVEIARQHNLIIFADEIYDKILYDDAEHHSIAPLAPDLLTITFNGLSKTYRVAGFRQGWMVLNGPKKHAKGYIEGLEMLASMRLCANVPAQHAIQTALGGYQSISEFITPGGRLYEQRNRAWELINDIPGVSCVKPRGALYMFPKIDAKRFNIHDDQKMVLDFLLQEKVLLVQGTAFNWPWPDHFRIVTLPRVDDIELSLSKFARFLSGYHQL | soluble
FPSKARMFEGLIEFIEESLMSRINRIFDEEKDTLNRIRLVMQLLLAFAERNPGLTRILSGHALMFENERLRDRINQLFERIETSLRQILRERKLREGKSFPVDENILAAQLLGQVEGSLNRFVRSDFKYLPTANFDEYWALLSAQIK | not soluble
MGSDKIHHHHHHMTPTVMVVDESRITFLAVKNALEKDGFNVIWAKNEQEAFTFLRREKIDLVFVDVFEGEESLNLIRRIREEFPDTKVAVLSAYVDKDLIINSVKAGAVDYILKPFRLDYLLERVKKIISSTPRVTVSLRKNIEDLEITLKFEDIVRKEIKRSNRTGSRFCVMYVKFEDIMRDYETIKKFFRETDYVLPISASEYLFVLTLTGKHGIEAVTRRMKEKLSERFSYTYVCYPDDGKTYEEIILTLKDRMAKPRGNES | not soluble
MSLAILIKNRIGKGYPIYTSTVLNEKLSDEGNLTFDILENENTYDLISAVSKMWTVHNVAGPDDKRVFVITIIDRQSRGEKQYVSITARQKEIDDLMTQRIYSNVTGSFTVENYFKIVFQGSGYKYKIPIKVPSSRWENAGDGDSRYEMFKNGLERYDLEYTYDPSNKTFTLEPFVEKKTSYYISSKVNANNLKLEEDASECYTYIRGYGGFEEDESFMQGSVQVEFTHPLAKVIGKREAPPKIDGRITNIETMKREIEAIIAQSLKTSLSLDFVALREVFPSAVPRIGDLVPVRDDIIDINDSVRIIEIKTTRDAHNKIIKQDVVLGDIRRRDRYTKSVNNAATLASGLGGGSEGHHHHHH | soluble
MQLNDSTLFRQQAFIDGDWRDARGGDVIPVSNPANGKPLGNVPKMGAEETRDAINAANRALPAWRALTAKERANILRRWFNLMMEHQDDLARLMTLEQGKPLAEAKGEISYAASFIEWFAEEGKRIYGDTIPGHQADKRLLVIKQPIGVTAAITPWNFPSAMITRKAGPALAAGCTMVLKPASQTPFSALALAELAQRAGIPAGVFNVVTGSAGDIGGELTSNPLVRKLSFTGSTEIGRQLMEQCAKDIKKVSLELGGNAPFIVFDDADLDKAVEGALASKFRNAGQTCVCANRLYVQDGVYDRFAEKLNQAVNKLAVGDGLQADVAIGPLIDEKAVAKVQEHIADALEKGARVITGGEAHKLGGNFFQPTILADVPDNAKVAKEETFGPLAPLFRFSDEADVIRQANDTEFGLAAYFYARDLSRVFRVGEALEYGIVGINTGIISNEVAPFGGIKASGLGREGSKYGIEDYLEIKYMCIGL | not soluble
MGSDKIHHHHHHMTPRSGKTTAGHFRYARYLIESEDENHLVTAYNQEQAYRLFIDGDGTGLMHIFDGNCEIKHDERGDHLLITTPKGNKRVYYKGGGKVNSVGAITGMSLGSVVFCEINLLHMDFIQECFRRTWAAKLRYHLADLNPPAPQHPVIKDVFDVQNTRWTHWTMDDNPILTAERKQNIINSLKKNPYLYKRDVLGQRVMPQGVIYGLFDTEKNVLDALIGEPVEMYFCADGGQSDATSMSCNIVTRVRDNGRISFRLNRVAHYYHSGADTGQVKAMSTYALELKVFIDWCVKKYQMRYTEVFVDPACKSLREELHKLGVFTLGAPNNSKDVSSKAKGIEVGIERGQNIISDGAFYLVNHSEEEYDHYHFLKEIGLYSRDDNGKPIDKDNHAMDEFRYSVNVFVHRYYN | not soluble
GMTKIRKIAVFIEETRIEAGREISPPTRKAVAVAVIENPFAGRYVEDLTELMDTGAELGALLGERCVQALGIRPEQAESYGKSAMVGENGELEHAAAILHPKLGAPLRKAVEKGAALVPSSKKMGSPGQVLDVPLGHKDAAYVRSHFDGIEVRLNDAPRANEIMVAVAVTDSGRPLPRVGGLTHDAAEGKDGLR | soluble
MKKILILLTLCAFAFGASECDRKIDRINKEISFSKAHNDTARTLSLELALKQVQNDCAKDPMFYDKKLEAKKLKEQEVEKIEKELDALKEQKDYMSKAEYKAKKEALKEQKEKIKKLEHHHHHH | not soluble
MGSDKIHHHHHHMAETSIEWTDVTWNPVAGCTVLTAGCTNCYAMRMAARLEAMGVEKYAGLTRKSGGRAKWTGRIFLDRKALSIPASWSKPRRVFVNSMSDLFHSDVPTDFISDVWKVMAQTPRHTYQILTKRPDRMVEIVPGLAKLRNVWLGTSVEDARVIYRIDKLRQVPAAVRFVSFEPLIGSVSGAGLRNIHWAIVGGESGPKARSMDPAWVDEIESMCRDQGAAFFFKQWGGKNKKAAGRTLNGRLYDEMPAPSMP | not soluble
MQKHWWHKATVYQIYPKSFMDTNGDGIGDLKGITSKLDYLQKLGVMAIWLSPVYDSPMDDNGYDIANYEAIADIFGNMADMDNLLTQAKMRGIKIIMDLVVNHTSDEHAWFIEAREHPDSSERDYYIWCDQPNDLESIFGGSAWQYDDKSDQYYLHFFSKKQPDLNWENANLRQKIYDMMNFWIDKGIGGFRMDVIDMIGKIPAQHIVSNGPKLHAYLKEMNAASFGQHDLLTVGETWGATPEIAKQYSNPVNHELSMVFQFEHIGLQHKPEAPKWDYVKELNVPALKTIFNKWQTELELGQGWNSLFWNNHDLPRVLSIWGNTGKYREKSAKALAILLHLMRGTPYIYQGEEIGMTNYPFKDLNELDDIESLNYAKEAFTNGKSMETIMDSIRMIGRDNARTPMQWDASQNAGFSTADKTWLPVNPNYKDINVQAALKNSNSIFYTYQQLIQLRKENDWLVDADFELLPTADKVFAYLRKVREERYLIVVNVSDQEEVLEIDVDKQETLISNTNESAALANHKLQPWDAFCIKILEHHHHHH | soluble
MTIFEKNVIEFVTVAAEFCAFLERAEHMKRKAFVDTSLKILPLLYLKASLLPKCETIGDEAPETYVTEEIYEILRINLAGLMGEKDDYLDVFVQDMVYSDQPIKKSVSEDLADIYQDIKDFIFVFQLGLNETMNDSLAICQENFGLLWGQKLVNTLRALHDVKYLEHHHHHH | soluble
MAWAPPMAKRRSAPATQAAARTPGWTLGGLATILKGFSGQVQFVPEDYPVWLNRVLAEAQTGRGTVGVLGGLHGDFPPLVSRGLLEPLDGLYARLQDRGFPQAFVELGRMGTPNQQYLPWMQATYVMVARKEALKYLPPGADLNALTYEDLKNWAKAIQEATGQRRLGFPAGPGGLIHRFLQGYLYPSYTGSQVRRFKSPEAEAMWRDFRELWRYVNPRSTAYEFMQEPLLSGEVWIAWDHTARLKDALVQRPQDFVAFPAPAGPKGRGFMPVVAGLAIPKTAPDKRAAEALVDYLTRPEVQLLTLKEVGFFPVVRARYGEDLPEGIRLLAEAVSAQSSAKDALPSLLPVGLGDKGGEFNKVYRDAFTRIVLRGEEIRRALDLEAQNLARILRETGAPCWPPDAPSTGACPVE | soluble
MSFERSRHDLKLKTSDGMHCVMTNKEIVCLASQFFRQHLKDTTTEFTVGRADSVESIDICLTYMITGIYKKPAQFSPKLASEIFALANQWKVLEPKVLKNSIEKHCCEELQKNYEDIMYVCNMLIIAEDAHFTNVQSCCIATLVFYHVRDFIRIIVNGVESPTEECFSQRREFLKPSLTMQAKRAFAASNEAKCFIKFLPAIGED | not soluble
MGSDKIHHHHHHMHWRGEYSCLSDSWRVSTQEDGGRLQMLTFRSARPEDEDALYAISLATGDAGQDATPLYNDGRMVGHIYSVPYLRLWPDAVFVAEDEEGVCGYIAGALDTVLHEQRLEQEWWPHLRALYPDPGGDPQTWDADQRRAHFIHHPRNTPSWLTDPFPAHIHMNLLPRTQGKGGGTRLLSRWLDMARQNNVYGIHLGASERNHAGMRFWETRGFKHLDSHETPGSVWFGMALE | not soluble
